# Experiment: soluble on expression in E. coli; label from the status in PepcDB or PDB records
row,Sequence,soluble on expression in E. coli
1,MKQPGEELQETLTELDDRAVVDYLIKNPEFFIRNARAVEAIRVPHPVRGTVSLVEWHMARARNHIHVLEENMALLMEQAIANEGLFYRLLYLQRSLTAASSLDDMLMRFHRWARDLGLAGASLRLFPDRWRLGAPSNHTHLALSRQSFEPLRIQRLGQEQHYLGPLNGPELLVVLPEAKAVGSVAMSMLGSDADLGVVLFTSRDASHYQQGQGTQLLHEIALMLPELLERWIERV,not soluble
2,LTAGKVDIPTPDGKMPAYRAAPAGKKDLPTLLVVSEIFGVHEYIQDVCRRLARLGYQAVAPELFARYGDPTGYTDIGRLRAEVVDKAGDRQVLADLDAAAAWAAANGGNSSRLGILGFCWGGRIVWLYAAHNPGLKAGAAWYGQLGGQASELKPRSVLESIGDLKAPVLGAYGGKDAGIPLSDVDRMRLALAKGPRAARDSRIDVYPEAPHAFHADYRPSYRKAEAEQAWQRMLDWFGQH,not soluble
3,MMDYPSIDTLLESAHIVTLPMKYPFMGLSERQAVLFEGPNSWAEYSPFMGCNDTRMWLASAIEYGWGNTNVLSVPNLDLDNTNFASRSKYGYIANPQTSNKDHSDNKRFYTQTKNHREIPVNAILPDIPASKMSEILGKDLQGCKCVKIKVGKHFQDRDIHRIRAVLDFMGADTMLRLDANCKWNVSETLNNLDVLEDNDLLENVSYIEQPCRTTRELITLKQKMDTRGYVTKIAIDESLRDLLLHWQKNRKWSNNSGITYTTELRETLSACDMLVLKLQPMGGMRAVADLLESIKNNIKVNVGYTVSSSLETSLGIEMGLALALNLPNITLPVGLATAGLLDADITDDPLLPNKGYITPRKIEVNKKLLNRYAADKRHVVWWHRRIRAAHRALFQDLSD,soluble
4,MAHHHHHHMLCVSVAKDGFAIVLTGLDTKRRAPPHQQRLSRNVCFHQTKAKEFVARFHQPCFLAWSHRTIGHPDALQDGARRRQEYKPSHSHPFFRCNEGAHQHMCG,soluble
5,MSHAVTIEEPQAQPQVSQTRYRERSRAGSHISSNRAYDFLYDPLFIVSSEKDHTQANIQATLIRSRLRKVPRFKTMFSNLIHYPRYSLYWSKSDPVPPFISREWKGHKEKHREALRQLTTTDASFQMPKEVYEDPEVTGKNRYKYFERPFLPFFQQMPFNVVYAVSKAEPYTFPPTSTKHLSIPSKSTVGTQTDYRDADVQTDPYSPEYVVCQDSIPELLTLATLTWGRGLPAGQAEVEMIERAREKRAWEASLPALSDTSQFEKRRKMMNEMERKEWAFREQEIEKLQEIRLEVLKELLRKREENQNEVNMKHLNARWSKLQEGKEAKMAVIYLQKLLRGRVIQNMMFEGKEKRLELIQELRTCHALQEDEKLVKKAEKQVTLALQRQRNLHEHKVSLVENHLAGLEGRALADMFDFLSKELVRLQEERRIHAFVMLAERQRRVREAEESGRRQVEKQRLREEDEIFKEVVKVHHSTISSYLEDIILNTEANTAEEQARAEIEKMAEKINDIAYEMESRRTYLQSEEIVAELVYSFLIPEVQKYFVKEKVRNAQRKHILAAHQIIHSYTESMVQKKLTEGEQDEASNAAMLLEKETQNENNS,not soluble
6,MGHDTIAKFLLTSGSTGNPKAVINTQRMICANQVMIREAMAFLKDEPPVIVDWLPWNHTFGGNHNIGLTLFNGGSMYIDDGKPTPAGIASTIRNLREIAPTVYFNVPKGYESLLPVLREDQQLRKLFFSRLHAMFFSGASLAAHVWNGLDEVAVAETGARVPMLTGLGATETAPFFMSVTPQTSRSGHVGLPVPGLEHHHHHH,not soluble
7,MNRLMTLTGAGLALAFSVSIAQAQVVVSSKIDTEGGVLGNIILAVLNQNKIETTDRIQLGATPVVRKAITAGEIDIYPEYTGNAAFFFSKADDPLWKDAAKGYEEAKTLDYDANKIVWLAPSPANNTWAIALRKDVADKNNLKTLSDFGKYVAGGGTVVLAASSEFVNSAAALPAFQTTYGFTMKPDQLITLSGGDTAATIAAAANQTNNANAAMVYGTDGGIAPSGLVVLEDDKHVQPVYQPAPIIREEVLKKHPNIEELLKPVFEKLDLATLQDLNARVQVGGEQAKTVAMDFLTKNGFAK,not soluble
8,MGSDKIHHHHHHVSEKMWGCCPNHWKSFGSSCYLISTKENFWSTSEQNCVQMGAHLVVINTEAEQNFITQQLNESLSYFLGLSDPQGNGKWQWIDDTPFSQNVRFWHPHEPNLPEERCVSIVYWNPSKWGWNDVFCDSKHNSICEMKKIYL,not soluble
9,MESTLSLQANLYPRLTPAGAFYAVSSDAPSAGKTLLHSLLKADADEMVSSEKLLTWADTADIDTALNLLYRLQKLEFLYGDENGHSDGINLSDEQLPLLMEQLSGSGKALLVDRNGLYLANANFHHEAAEELGLLAAEVAQMEKKYRLLIKNNLYINNNAWGVCDPSGQSELTFFPLYIGSTKFILVIGGIPDLGKEAFVTLVRILYRRYSNRV,not soluble
10,MADVADPEVESRPQRFPKNIMITGANRGIGFGLVKHFLEYDGIELLIATCRNPEKADELNALKNDRRLHVIALNVDDDESIKKVFDEVSSLVSSNGLNMLINNAGILLPYEVDGPKICRKTMMKQLETNSVSVAILTQIFLPLIKTAASAAEGDEASIDRASIINISSTMASIEMNNGCFDGPMTAYRMSKSALNAFARQSFMELSKYHILVTSFCPGWVRTDMGGDNADLDVNESTKTLSANILRLDNRNNGLYFDRFLHPIPN,not soluble
11,MNTLSDSASPLYEKVKDFVLGNIGSGKWARNSRLPSENELVSALGVSRMTVHRALRELTSEGHLRRIQGVGTFVAPPRPRSTLIEISNIITEIKTRGSRHRAEVVVLERIARPEPELLLAFEFETVKPVDHSVVIHFENDLPVQLEERYVNPNLVSGYIDQDFAAVATYDYLQNATPLTEVEHLISALPANAEQARLLNVRPGDCCLILHRKTWTGPVVATVNTFTYVGSRYSLGSRYLHGGK,not soluble
12,MMNYELMTTQNAPVKMWTKGVPVEDDARQQLINTAKMPFIFKHIAVMPDVHLGKGSTIGSVIPTKGAIIPAAVGVDIGCGMNALRTSLTAADLPENLADLRSAIEAAVPHGRTTGRGHRDVGAWGNPPANVNEKWAQLEAGYQWLTQKYPRFLNTNNYKHLGTLGTGNHFIEICLDETDRVWIMLHSGSRGIGNAIGTYFIGLAQQEMQEQLETLPSRDLAYFNEGSEYFDDYLKAVHWAQQFASLNREAMMENALAALQRCVEKPSALDMDEINCHHNYVQKEQHFGEEIYVTRKGAVSARRGEFGIIPGSMGAKSFIVRGLGNEESFCSCSHGAGRVMSRTKAKKLFSVDDQIRATAHVECRKDADVIDEIPMAYKDIDAVMAAQSDLVEIMYALRQVVCVKGLEHHHHHH,not soluble
13,MFDPKKLEQIAKQIHDSMPAPVKELGADVDQKVRQVIQGQLNKLDVVSREEFDVQTQVLLRTRQKLTEMEKKLSELEEKLADK,not soluble
14,MGSDKIHHHHHHMASFVDKLHPLVLNIGLAIHNADWNWKNVNSPFTRLYYVTEGTAQVLISGKTQILKANHMYFIPAFTKHSYICNSYFSHYYLHIYEEHQSDSNLLDNWDFPIEIPAVEIDLALFQRLCTINPHMTLQKSDPTSYDNNYTLMQNLLKNKQRTLSDKIESRGIVYQLLARFLKRAQVKMELKDNRIEEAIHYIRKHINETIDLRVLAENSCLSKDHFIRLFKKETGDTPLKYINRKKIEKAQLILITDDMSIKNVALNLAFEDYSYFNRLFKKITGITPQEYRTSYHS,not soluble
15,MHHHHHHMNPERSERIEIPVLPLRDVVVYPHMVIPLFVGREKSIRCLEAAMDHDKKIMLVAQKEASTDEPGVNDLFTVGTVASILQMLKLPDGTVKVLVEGLQRARISALSDNGEHFSAKAEYLE,soluble
16,LLEKHGVVVRSSNYELYADLSERMMNVIGRFCDNQYIYSIDESFLYFDHYESCINDWHEYGHKIRKAIWKETRLPVGVGFGETATLSKAANHAAKKLSGFN,not soluble
17,MSTFSFIIVNNEQVRIHDIQGKSHMSPYNGKKVNNVEGVVTALDKNGFYIEDNQPDNDPATSEGMYVYKKDANVAVGDLIQVDGVVEEYVGPGYAERFETDLTTTEIKASRVVVIAKDQSLPAPIVLGENGVKIPDQIIDNDAFGLFDPNEDAIDFYESIEGMRVTMPTPKVIAPQKNGNLYVTVKNGGDKIVTQYGTPLLDENQLNPERLSVKVPRDYVAKVGDTFTGDITGVVGYDYGSFRISPITELPAVVDGGFKQVGANIQPRLDKLTVATYNIENFSANKKETTDEKVKALAYSIKYNLKMPDIIGVEEMQDNNGLEHHHHHH,soluble
18,NGHYMDQFTYAERATDWRGNNNIANSIFSQMQLEDHPIPSWVVMSPGTGGTSATIGRFIRYQKYDTKLCVVDPENSVFYDAFQSGNNELKGNTGSKIEGIGRPRVEPSFIAGVVDEMRKIPDAASIATAHWVSQLIGRKVGASTGTNLYGVLQLACEMKQRGETGSIVTLLCDSGERYLDTYYDLAWVKENIGDIQPYLTQLEVIQAKGCVEPACCGPITA,not soluble
19,SNAMPQQKNFVTMPAQHQNKQPGIESLMNPLPQFEDPNYKGSEKLKGKNVLITGGDSGIGRAVSIAFAKEGANIAIAYLDEEGDANETKQYVEKEGVKCVLLPGDLSDEQHCKDIVQETVRQLGSLNILVNNVAQQYPQQGLEYITAEQLEKTFRINIFSYFHVTKAALSHLKQGDVIINTASIVAYEGNETLIDYSATKGAIVAFTRSLSQSLVQKGIRVNGVAPGPIWTPLIPSSFDEKKVSQFGSNVPMQRPGQPYELAPAYVYLASSDSSYVTGQMIHVNGGVIVNG,soluble
20,MGSDKIHHHHHHVKFRVDRDAFADAVTWTARALPARPAVPVLAGMRLEVADTASDTLRLSGFDYEVSAQASVDVHAEEAGSVLVPGRLLAEIVRTLPPHPVEFHVEGSRALLTCGNARFTLLTLPLEDYPTLPAMPRTIGSAPADVFATAVRQVLPSTSRDDTLPMLTGVHLTFRGDTILLAATDRYRIAVREMWWKPEEVDIDTSALVPARTLGDFSRSLTGGNVDIALSTSDSRGAGEGMIGFEHDGKRTTTRLIDSDFVSYESRFPTEFAAQADVPVAPLAEAVKRVALVADRSTPVRLSFTSSEVVLEAGSGDDAQALEALEVNFEGEPMRIAFNPQYFLDGLTNVETERAFLRFVAPTRPAVITGTPAKEGGKPDFRYLVMPLRLA,not soluble
21,MDTLHQQLCTHSGSTSPKGLYLWGDVGRGKTFLMDLFYDALPQRGKLRLHFHRFMARVHQALKVHAGQRDPLKLIAKNLAKECKVLCFDEFFVSDIGDAMILAGLFETLFAQGVVLVATSNIPIERLYENGLARHRFLPCIALLQAHTQMLHLNGKQDHRLHALSAKPSAEALAATSHNIGLTGTLDFDGIFAALTQNSPSIKDGKLRVCQREISVIRATTENQLPSVAWFDFNALCDGPRSQLDYIEIASRFKVLMLSNVPRLGGEVKGWIRARGTEDGTGDNQAATTGERQLSYAVNDDPARRFISLIDELYDQDVSLYLSCDVPLTELYQGGALSFEFRRTYSRLIEMSHSAAMKLTY,not soluble
22,MDSPIINEQFWDALFFNGTMPWDRSQTPNELKHYLKRIADKTHSVFIPGCGAAYEVSHFVDCGHDVIAMDYSAEAVNLAKSQLGQHQDKVMLGDVFNADFSREFDVIYERAFLAALPREIWGDYFAMIERLLPSNGLLVGYFVISDDYRSRFPPFCLRSGEIEQKLEANFHLIESTPVTDSVDVFKGKEQWMVWQKLEHHHHHH,not soluble
23,MNLIGKWIVGVGESVLNRMPLVRPIYKSIKQLFESVLKEHSNSFKKVGLIEFPSSGTWAMVFVSSEVKGELAHRFNEMGQQMVAVFLPPTPVPTAGFLLFVPKDKIVMLDMTPEDAAKLLISGGLVAPDFTPPKVIAPVLEHHHHHH,soluble

# From the DeepSol protein solubility set
